Measurements from the supplement of paper PMC9170038.

Tested on: K4 kissing-loop RNA reporter
Assay: apparent KD of K4 kissing-loop reporter; higher = weaker reporter binding
Details: Eterna round: R107
Description: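 RNA-MaP round R107: designed RNA switches with theophylline, tryptophan, arginine or FMN aptamers are transcribed on-chip within common flanks. They are titrated with a labelled K4 kissing-loop RNA reporter in RNA-MaP buffer (100 mM Tris pH 7.5, 80 mM KCl, 4 mM MgCl2), without ligand or with the indicated ligand. Median apparent KD per design.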

[1] = input ligand: theophylline 20 uM
[2] = input ligand: tryptophan 2.4 mM
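Further: bound reporter read as fluorescence of individual clusters on recovered sequencing chips by microscopy, with normalized cluster intensities fitted with a binding model.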

| Sequence | apparent KD of K4 kissing-loop reporter (input ligand: FMN 200 uM) [nM] | apparent KD of K4 kissing-loop reporter (input ligand: arginine 13.2 mM) [nM] | apparent KD of K4 kissing-loop reporter (input ligand: none) [nM] | apparent KD of K4 kissing-loop reporter [1] [nM] | apparent KD of K4 kissing-loop reporter [2] [nM] |
| --- | --- | --- | --- | --- | --- |
| CAUGGAGUGAUGCUCCAUGAUCGGGCUUGGCAGGAUAUGGGAUUUUCCAGAAGGGUCGAUCCCAGCGAGUGAUGUUCGCUGGUCU [Exclusion FMN A GF 26] | 106 | 121 | 126 | 151 | 116 |
| CCAGAAUAAUGAAGAUGAUAAAUUACUGAAGGAGCGCAUAUAGUUGCAGGUAGGUCGCGGUGAAUAAGUAUAGUGAUGUUAUACC [SSArgA.Ad] | 261 | 209 | 256 | 260 | 255 |
| CCAGCAAAGCUGGUCGCCAAACAACGGGCACGAGGACCGGUACGGCCGCCACUCGUGAGGACGAGUGAUGUUCGUUCACGGGCGA | 815 | 587 | 1690 | 602 | 302 |
| CCAGCGGGCACGGCCGCCACUCUCUCGAGUGAUGUUUGCGGAGUCAGGCCGGCUCAGUACGUCACGAGGACCGGGUGCAAUUUAC [theeternabot_exclusion_KL_Trp_B_40] | 986 | 425 | 829 | 506 | 460 |
| CCAGGACGAUGAGGAUGAUGAAUUACUGAAGGAGCGCAUAUGGUUGCAGGUAGGUCGCGGUGAACAAGUAUAGUGAUGUUAUGCC [SSArgA.V] | 704 | 424 | 693 | 519 | 631 |
| CCAGGAUGAUGAGGAUGAUAAAUUACUGAAGGAGCGCAUAUGGUUGCAGGUAGGUCGCGGUGAAUAAGUAUAGUGAUGUUAUGCC [SSArgA.Y] | 970 | 612 | 561 | 801 | 761 |
| CCAUCGCUAUUCGAUACCAGUCAGGAGGUCUUUGGCCUCCUAAUGGAGUGAUGUUCCUUAGACCCUUGGCAGCGAAUAGUGAUGG [Theophylline B K4 14] | 630 | 171 | 405 | 448 | 249 |
| CCAUUCAGUUACGAUACCAGUCUAAUAUAUUUGAUCAAAACCCUCGCCGAGUGAUGUUCGGACCCUUGGCAGCGUCUGGGACAGG [xxcetmullin] | 481 | 399 | 421 | 379 | 344 |
| CCAUUCUUUUACGAUACCAGUCUAAUAUAUUUAAUCAAAACCCUCGCCGAGUGAUGUUCGGACCCUUGGCAGCGUCUGCGAGAGG [ettyxtkmullin] | 606 | 472 | 758 | 603 | 495 |
| CCCGCGUCGUUAGUGAUGUUGACUUCUGAUACCAGUCGCAGGUAGGACCCUUGGCAGCAGCAGUUUUGUUAUAUGUAGGAUCCAG [theeternabot_exclusion_KL_Theo_A_36] | 727 | 201 | 717 | 445 | 490 |
| CCCGUACCAGUGAUGUUGGUAUGGUCUGAUACCAGUCUGUAGUCGGGCCCUUGGCAGCAGACCCUUGCCAAGGUGACGACUCCGG [Qu] | 128 | 146 | 126 | 131 | 132 |
| CCCGUGGGUUUGAGAGGGCUUGUGGGAAGUAAGGAUAUUUAGGGAGAAAGAAGGUACUAUAGAAUAUAGUGAUGUUAUAUAUGGG [#06 K4 FMN A Same State] | 238 | 218 | 232 | 126 | 170 |
| CCCUCACGAGUGAUGUUCGUAGGGUACAGUCAGGAUAUCAUGCGGUUGAGAAGGGACAGGAAGGGCGGCGGCGGGUUGCUCACCG [Atera] | 154 | 163 | 192 | 204 | 150 |
| CCGGGCGGCCGAAGGAGCGGGCGGACCCGAGUGAUGUUCGGGUGGACCGUGAGGUCCGGUGCCCAGGUAGGUCGCGGUUCCGUCC [#2 Same State - Arginine B Attempt #6 (HarryS)] | 200 | 101 | 159 | 97.5 | 121 |
| CCGGUUCCAACGCUGACUGAAGAACAUGAUACCAGUCGAGGACUCGACCCUUGGCAGCAUUAUAGAGUGAUGUUCGCUUCAGAAA [theeternabot_sameState_KL_Theo_A_15] | 157 | 140 | 189 | 367 | 117 |
| CCGUGGAGUGAUGUUCCACGUAAUACGGAUACCAGCUUUGCCAAAGGCCCUUGGCAGCCGCACGUUGCAGUGAUGUUGUGGCGCG [Same State Theophylline A G8] | 191 | 143 | 183 | 162 | 150 |
| CCGUGGCCGACGGCCGCCACUCUUACCAUCCAGCGGAGUGAUGUUCCGCCCGAGUGAUGUUCGGAGAGGACCGGGUCUGUUGUAA [Exclusion Tryptophan B GF30] | 117 | 103 | 108 | 89.1 | 98.9 |
| CCUAUCUCAUACGAUACCAGUCAAUGAUCUUUGAUCAAUGCCAUCACCGAGUGAUGUUCGGACCCUUGGCAGCGUAUGAGAUGGG [whbob_Ex_Theo_B_sa104] | 276 | 203 | 255 | 376 | 246 |
| CCUAUCUCAUACGAUACCAGUGAAUUUAUGUUUAUUAGCAGUGAUGUUGCGUUCCAAGUACACCCUUGGCAGCGUAUGGGAUAGG [Ex Theophylline B K4 24] | 139 | 168 | 147 | 143 | 113 |
| CCUAUCUCAUACGAUACCAGUGAUUAACCAGUGAUGUUGGAAUAACCAAGGAAUAUUUUUCACCCUUGGCAGCGUAUGGGAUAGG [Ex Theophylline B K4 26] | 78 | 38 | 59.1 | 61.9 | 49.6 |
| CCUAUCUGUUACGAUACCAGUCAAUGAUAUUUUAUCAAUGCCCUCACCGAGUGAUGUUCGGACCCUUGGCAGCGUCUGGGAUAGG [tyygpimullin] | 160 | 148 | 171 | 153 | 151 |

| Sequence | apparent KD of K4 kissing-loop reporter (input ligand: FMN 200 uM) [nM] | apparent KD of K4 kissing-loop reporter (input ligand: arginine 13.2 mM) [nM] | apparent KD of K4 kissing-loop reporter (input ligand: none) [nM] | apparent KD of K4 kissing-loop reporter [1] [nM] | apparent KD of K4 kissing-loop reporter [2] [nM] |
| --- | --- | --- | --- | --- | --- |
| CCUGCCAGCACGGCCGCCACUUCUAUUGUAUCUAUUUUUGUAAUCCUUUAGGAGUGAUGUUUUUAAAGGACCGGGUGAUGGCUGA [theeternabot_exclusion_KL_Trp_B_14] | 446 | 248 | 398 | 356 | 410 |
| CCUGGCGAGGUAACGUGGAUAUCUCGUCGCAAGGAUAUCUGGAAACAGAGAAGGUGCUACAUUACCGGCAGUGAUGUUGCUGACC | 841 | 336 | 426 | 455 | 274 |
| CCUUCCCUUGAUAGUGAUGUUAUCAAGGACAAGGAUAUCAUCUCAAUGAGAAGGUGUCCUUGAUAACAUGGAGGUCUGAAACAGA [Omei KL FMN A Exc C v2] | 279 | 125 | 132 | 128 | 139 |
| CCUUCCGACACGGCCGCCACUAAUUUCAUCAGAUUGCCCGGAUUUCCAAGAUAGUGAUGUUGUACUAGGACCGGGUGUCAGGUCG [theeternabot_exclusion_KL_Trp_B_16] | 874 | 680 | 816 | 760 | 775 |
| CGAGUCCUGAGGAGUGAUGUUCCUCGGCCACGAGGACCGGUACGGCCGCCACUCGUUACUCGAGCUUAGUAGCUAGCACUAAGCC [Zaussora] | 189 | 164 | 179 | 186 | 109 |
| CGAGUGAUGUUCGAAGAGUUGUUAAGCGAUACCAGCCAGGAAACUGGCCCUUGGCAGCGUAAUAAAUAAAUAAAUAAAUGAUCAC [Theophylline A Exclusion; Euphoria Solution] | 425 | 438 | 472 | 430 | 372 |
| CGAUGGAUGGCAGGAUAUAGACAUUGAGUGAUGUUCGAUGAUUAUCCAUAUUCCCGUCACCUAAGACUAGAAGGGCCAUCCAUCG | 554 | 167 | 205 | 191 | 198 |
| CGAUGUUCCUGGGAUACCAGUCGGAGUCUCAGAGCUCGGAGUGAUGUUCUGGGAUGUUUCGGCCCUUGGCAGCUCUGGGACUCCC [#2 Exclusion - Theophylline B Attempt #23 (HarryS)] | 843 | 615 | 818 | 682 | 722 |
| CGAUUUGCUUCAGCCUUAGUGAUGUUAAGGCGAGGACCGGUACGGCCGCCACUCGUAGGUUAUGUGCACGGCGGCGCUAAGGGCC [theeternabot_exclusion_KL_Trp_A_36] | 109 | 107 | 111 | 120 | 108 |
| CGCACACUUGUUGAUACCAGAAGCCGACCGGAAACAUCAUUGAGUGAUGUUCAAGCUGUUUUCCCUUGGCAGCAAACGAGUGGUC [theeternabot_exclusion_KL_Theo_B_22] | 150 | 120 | 138 | 132 | 138 |
| CGCAGUGAUGUUGCGAGUAGCUACAGGGAAGGAGCGCUUUAGUAAGCAGGUAGGUCGCCCACGCAGUGAUGUUGCGUCAUAGGGU [Exclusion Arginine A GF 19] | 118 | 106 | 108 | 109 | 88.4 |
| CGCAGUGAUGUUGCGAGUAGCUACAGGGAAGGAGCGUGCUAGAGCACAGGUAGGUCGCCCUCGGGCAGUGAUGUUGCCAAAGGUU [Exclusion ARginine A GF 16] | 77.1 | 85.2 | 79.8 | 80.6 | 68.3 |
| CGCCGCAAGGCGGUCCUGCCCACUCCGGAAGGAGCGCCCGCAAGGGCAGGUAGGUCGCCGGAGUGAUGUUCCGGUGGCAGGACCG [#2 Exclusion - Arginine A Attempt #4 (Inspired by Omei)] | 477 | 112 | 422 | 264 | 245 |
| CGCGACGUGGUCACGCCAGUCUCGUUAACCAAGGAUAUUGAGAAGACAAGAAGGUGGAUGUACCAUAGUGAUGUUGUGGUCAGUA [theeternabot_sameState_KL_FMN_A_17] | 416 | 356 | 465 | 448 | 388 |
| CGCGCGGGUUUGAGAGGGUUCGCGCGAAGUGAGGAUAUUUAGGGAGAAAGAAGGCACUAUAAAAUAUAGUGAUGUUAUAUAAGGG [SSFMNA.H] | 699 | 93.9 | 1110 | 371 | 342 |
| CGCGUUGGUUGAGAGGUUGGCGCGAAUGAUACCAGUAUAUAAGAAUACCCUUGGCAGCAUAAGAAAGAUAUAGUGAUGUUGUAUA [SSTheophA.I] | 469 | 232 | 454 | 289 | 420 |
| CGCUGGGCGAGUGAUGUUCGCUCACGUGAUACCAGUGCCAUCCAACACCCUUGGCAGCACGCGGGCAGUGAUGUUGUCCUUAGUG [Exclusion Theophylline A GF8] | 127 | 123 | 128 | 125 | 116 |
| CGCUUAGUGAUGUUUGAUUUGGCGCAUGCAGAGGAUAUAGGGUGCUUUAGAAGGCUGAGGAGUGCGCCGAGUGAUGUUCGGCGCU [Exclusion FMN A GF12] | 183 | 141 | 212 | 162 | 166 |
| CGGAGUGAUGUUCCGUUAAUUAAUUAUUUACGAGGACCGGUACGGCCGCCACUCGAUUUUGCUUUUAUUUAAUGUUUGGAAAUUU [JR_SSTryptoA_Sub006] | 135 | 143 | 142 | 146 | 101 |
| CGGAUGUAGUGAUGUUAUAUAAGAAGUAGACGAGGACCGGUACGGCCGCCACUCGAAACGGCUACUAGCGCGUUGCGAGGUGUGC [ExTryptoA.Ch] | 651 | 681 | 549 | 688 | 500 |
| CGGUACGUCGCAGGAUAUGGAUUCUGGAGUGAUGUUUCAGAGGCAUGCGGAAAACGCAUGCCGACUCCAGAAGGGCGACGUACCG | 752 | 85.8 | 276 | 24 | 376 |
